# Experimental data published in PMC6366628.
# T1: RAD52 (Homo sapiens, UniProt P43351 1-418)
# T1 sequence: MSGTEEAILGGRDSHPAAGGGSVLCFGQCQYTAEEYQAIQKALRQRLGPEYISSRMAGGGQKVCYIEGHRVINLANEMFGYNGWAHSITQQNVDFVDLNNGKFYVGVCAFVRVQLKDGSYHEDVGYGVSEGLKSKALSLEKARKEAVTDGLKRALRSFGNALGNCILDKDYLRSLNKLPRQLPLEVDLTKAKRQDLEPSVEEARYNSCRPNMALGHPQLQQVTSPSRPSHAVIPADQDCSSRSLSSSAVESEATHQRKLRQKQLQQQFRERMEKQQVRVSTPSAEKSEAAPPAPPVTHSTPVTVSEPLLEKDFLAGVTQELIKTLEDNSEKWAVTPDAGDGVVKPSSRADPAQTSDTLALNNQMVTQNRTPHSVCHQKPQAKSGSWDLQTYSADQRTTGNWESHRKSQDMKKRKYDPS
# B1: ssTelo (Telo G-strand) (ssDNA)
# DNA: TTAGGGTTAGGGTTAGGGTTAGGGTTAGGGTTAGGGTTAGGGTTAGGGTTAGGGTTAGGG
# Legend:
# RPA complex = RPA complex (Homo sapiens, UniProt P27694;P15927;P35244 1-616;1-270;1-121); assay: EMSA
# RAD52 = target: T1, RAD52; assay: EMSA
# RPA complex, sequence (P27694 whole entry, chain 1 of 3): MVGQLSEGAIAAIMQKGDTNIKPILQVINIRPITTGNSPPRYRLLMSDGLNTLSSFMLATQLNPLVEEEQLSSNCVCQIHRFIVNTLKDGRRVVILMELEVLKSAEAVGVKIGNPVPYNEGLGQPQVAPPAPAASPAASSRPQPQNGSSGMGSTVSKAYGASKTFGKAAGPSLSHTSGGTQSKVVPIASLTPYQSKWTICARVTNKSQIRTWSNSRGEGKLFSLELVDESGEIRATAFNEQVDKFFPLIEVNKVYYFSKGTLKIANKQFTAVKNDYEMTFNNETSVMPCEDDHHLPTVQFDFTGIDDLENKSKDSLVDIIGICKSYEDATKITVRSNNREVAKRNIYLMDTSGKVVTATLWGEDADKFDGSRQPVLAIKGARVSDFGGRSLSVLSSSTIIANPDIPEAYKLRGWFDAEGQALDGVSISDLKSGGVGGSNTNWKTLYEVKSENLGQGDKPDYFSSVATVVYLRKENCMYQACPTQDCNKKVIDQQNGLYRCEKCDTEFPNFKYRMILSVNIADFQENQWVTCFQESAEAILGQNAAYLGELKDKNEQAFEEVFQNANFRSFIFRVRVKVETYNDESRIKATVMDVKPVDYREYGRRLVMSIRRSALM
# RPA complex, sequence (P15927 whole entry, chain 2 of 3): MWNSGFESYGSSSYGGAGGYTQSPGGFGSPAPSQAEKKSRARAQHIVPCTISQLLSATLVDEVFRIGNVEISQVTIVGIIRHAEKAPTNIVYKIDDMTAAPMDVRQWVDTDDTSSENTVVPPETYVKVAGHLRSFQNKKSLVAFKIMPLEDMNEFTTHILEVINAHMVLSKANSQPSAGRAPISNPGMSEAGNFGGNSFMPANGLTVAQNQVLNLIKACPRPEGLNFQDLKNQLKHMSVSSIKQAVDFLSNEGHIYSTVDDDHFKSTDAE
# RPA complex, sequence (P35244 whole entry, chain 3 of 3): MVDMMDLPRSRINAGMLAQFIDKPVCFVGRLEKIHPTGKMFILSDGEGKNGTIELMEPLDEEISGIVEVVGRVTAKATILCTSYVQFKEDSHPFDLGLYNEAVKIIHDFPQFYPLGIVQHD
binder,measurement,setting,value
B1,binding result,RPA complex,binds
same,binding result,RAD52,binds
